Patent US20120329067A1

Experiments:
[1] = target: ZFN with wild-type FokI cleavage domain carrying R487D (DD architecture); assay: cell-based or functional assay
[2] = target: ZFN with wild-type FokI cleavage domain carrying the DAMQS interface (DS architecture); assay: cell-based or functional assay

B1: ZFN with wild-type FokI cleavage domain carrying D483R (RR architecture) (enzyme, part only; not given: zinc finger domain and linker, part only)
chain, part: QLVKSELEEKKSELRHKLKYVPHEYIELIEIARNSTQDRILEMKVMEFFMKVYGYRGKHLGGSRKPDGAIYTVGSPIDYGVIVDTKAYSGGYNLPIGQAREMQRYVEENQTRNKHINPNEWWKVYPSSVTEFKFLFVSGHFKGNYKAQLTRLNHITNCNGAVLSVEELLIGGEMIKAGTLTLEEVRRKFNNGEINF
**Q.** How did the stimulation of mutagenesis in an EGFP reporter cell line (P3/E4 cleavage site), relative to wt (fraction of wt activity) [1] turn out when B1 was run?
**A.** The stimulation of mutagenesis in an EGFP reporter cell line (P3/E4 cleavage site), relative to wt (fraction of wt activity) was 0.167.

**Q.** What about the stimulation of mutagenesis in an EGFP reporter cell line (P3/E4 cleavage site), relative to wt (fraction of wt activity) [2] of the same binder?
**A.** The stimulation of mutagenesis in an EGFP reporter cell line (P3/E4 cleavage site), relative to wt (fraction of wt activity) was 0.33.
